Data set [1] concerns the target T1, INTS10-INTS13-INTS14 heterotrimer (Homo sapiens, UniProt Q9NVR2;Q9NVM9;Q96SY0 1-710;1-706;1-518). Kind of data set: EMSA; FP: 10 nM RNA, 10 mM HEPES pH 7.5, 5% glycerol, 2 mM MgCl2, 50 mM NaCl or none added, temperature not stated; EMSA: 50 mM HEPES pH 7.5, 200 mM NaCl, 2 mM MgCl2, on ice, 2 uM RNA or 1 uM DNA. The note with it: protein: recombinant; tags: INTS13 N-terminal 2xStrep, HRV 3C cleavable (removed if needed); copies: 1;1;1; hairpin.

Data set [2] deals with T2, INTS13-INTS14 heterodimer (Homo sapiens, UniProt Q9NVM9;Q96SY0 1-706;1-518). The data set is described as above. The following applies: protein: recombinant; tags: INTS13 N-terminal 2xStrep, HRV 3C cleavable (removed if needed); copies: 1;1; hairpin.
Data set [3] concerns the target T3, INT cleavage module (His10-INTS4–INTS9–(2S)-INTS11) (human, UniProt Q96HW7 1-963; Q9NV88 1-658; Q5TA45 1-600).
T3 construct: INTS4, human; INTS9, human; INTS11, human; The tags are named in the methods of the copurification assays; also called INTS4–INTS9–INTS11; INTS4–9–11; source: insect cells (HighFive, baculovirus), coexpressed; in cell extract and purified (StrepTrap, heparin, Superose 6); not shown: His10, N-terminal, kept; tandem Strep tag (2S), N-terminal, kept; copies: + +
As to the kind of experiment: pull-down; GST-INTS13 C-terminal constructs from E. coli lysates with insect cell extracts expressing cleavage module subunits, on glutathione sepharose; 50 mM HEPES pH 7.5, 200 mM NaCl, 2 mM DTT; Coomassie gel and Western blots. The following applies: partners not purified. A general note: In western blotting, separated proteins are transferred to a membrane and probed.

Data set [4] has as its target T1, INTS10-INTS13-INTS14 heterotrimer. As to the kind of experiment: fluorescence polarization; FP: 10 nM RNA, 10 mM HEPES pH 7.5, 5% glycerol, 2 mM MgCl2, 50 mM NaCl or none added, temperature not stated; EMSA: 50 mM HEPES pH 7.5, 200 mM NaCl, 2 mM MgCl2, on ice, 2 uM RNA or 1 uM DNA. The following applies: protein: recombinant; tags: INTS13 N-terminal 2xStrep, HRV 3C cleavable (removed if needed); copies: 1;1;1; label: 5'-6-FAM; single strand. (In general: In fluorescence polarisation assays a small probe gives low polarisation when free and higher when bound to something large.)

The target of data set [5] is T2, INTS13-INTS14 heterodimer. The description is as above. The following applies: protein: recombinant; tags: INTS13 N-terminal 2xStrep, HRV 3C cleavable (removed if needed); copies: 1;1; label: 5'-6-FAM; single strand.

T1 sequence (Q9NVR2 whole entry, chain 1 of 3): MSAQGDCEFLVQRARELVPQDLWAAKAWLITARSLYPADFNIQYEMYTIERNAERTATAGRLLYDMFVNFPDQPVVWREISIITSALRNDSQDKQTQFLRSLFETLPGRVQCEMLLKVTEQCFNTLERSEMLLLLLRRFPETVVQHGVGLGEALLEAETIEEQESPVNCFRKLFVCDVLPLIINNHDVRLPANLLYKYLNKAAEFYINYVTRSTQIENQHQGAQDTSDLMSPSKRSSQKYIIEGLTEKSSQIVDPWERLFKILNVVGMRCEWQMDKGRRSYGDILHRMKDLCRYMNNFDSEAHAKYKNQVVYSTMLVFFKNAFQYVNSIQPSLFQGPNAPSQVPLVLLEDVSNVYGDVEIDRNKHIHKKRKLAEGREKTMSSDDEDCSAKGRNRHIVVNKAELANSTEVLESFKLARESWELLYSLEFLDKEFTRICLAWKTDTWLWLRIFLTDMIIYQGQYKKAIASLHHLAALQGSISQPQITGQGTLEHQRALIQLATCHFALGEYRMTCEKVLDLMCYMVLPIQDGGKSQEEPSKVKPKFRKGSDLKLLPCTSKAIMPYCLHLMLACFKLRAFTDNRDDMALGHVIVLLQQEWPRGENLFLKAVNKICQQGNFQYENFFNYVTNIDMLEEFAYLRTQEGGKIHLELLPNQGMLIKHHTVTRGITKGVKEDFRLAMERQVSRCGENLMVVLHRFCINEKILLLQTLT
T1 sequence (Q9NVM9 whole entry, chain 2 of 3): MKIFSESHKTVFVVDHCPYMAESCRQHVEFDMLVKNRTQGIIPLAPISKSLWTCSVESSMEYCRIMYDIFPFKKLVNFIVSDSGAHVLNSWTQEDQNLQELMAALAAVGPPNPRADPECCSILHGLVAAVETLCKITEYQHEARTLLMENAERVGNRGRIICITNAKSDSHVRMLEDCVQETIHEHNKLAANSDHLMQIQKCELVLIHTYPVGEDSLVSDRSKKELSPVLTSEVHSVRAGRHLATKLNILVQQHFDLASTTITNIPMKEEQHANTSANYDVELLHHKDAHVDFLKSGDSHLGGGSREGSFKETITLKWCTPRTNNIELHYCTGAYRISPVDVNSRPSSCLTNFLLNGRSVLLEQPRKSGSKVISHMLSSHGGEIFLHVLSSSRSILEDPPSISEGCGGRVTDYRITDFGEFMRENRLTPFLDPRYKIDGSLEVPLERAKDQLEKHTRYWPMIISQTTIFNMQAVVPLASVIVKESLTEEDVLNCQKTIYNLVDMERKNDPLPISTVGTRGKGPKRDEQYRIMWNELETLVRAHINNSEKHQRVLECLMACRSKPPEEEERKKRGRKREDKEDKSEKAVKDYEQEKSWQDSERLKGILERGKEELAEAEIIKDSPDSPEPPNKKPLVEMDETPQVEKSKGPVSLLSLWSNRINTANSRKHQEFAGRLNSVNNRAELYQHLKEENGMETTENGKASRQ
T1 sequence (Q96SY0 whole entry, chain 3 of 3): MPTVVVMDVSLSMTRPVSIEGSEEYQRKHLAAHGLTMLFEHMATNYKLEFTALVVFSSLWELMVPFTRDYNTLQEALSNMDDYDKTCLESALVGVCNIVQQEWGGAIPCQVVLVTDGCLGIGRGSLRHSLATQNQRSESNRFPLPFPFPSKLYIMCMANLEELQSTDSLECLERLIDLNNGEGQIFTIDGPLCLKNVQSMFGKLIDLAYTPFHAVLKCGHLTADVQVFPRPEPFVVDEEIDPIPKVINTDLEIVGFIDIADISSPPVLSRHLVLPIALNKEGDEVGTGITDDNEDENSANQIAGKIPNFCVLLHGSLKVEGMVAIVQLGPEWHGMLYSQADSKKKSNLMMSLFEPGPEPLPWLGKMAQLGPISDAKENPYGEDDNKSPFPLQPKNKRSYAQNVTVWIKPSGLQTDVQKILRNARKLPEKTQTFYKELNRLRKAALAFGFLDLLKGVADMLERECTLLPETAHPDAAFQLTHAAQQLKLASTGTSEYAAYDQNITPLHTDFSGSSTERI
T2 sequence (Q9NVM9 whole entry, chain 1 of 2): as the sequence (Q9NVM9 whole entry, chain 2 of 3) above
T2 sequence (Q96SY0 whole entry, chain 2 of 2): as the sequence (Q96SY0 whole entry, chain 3 of 3) above
T3 sequence (Q96HW7 whole entry, chain 1 of 3): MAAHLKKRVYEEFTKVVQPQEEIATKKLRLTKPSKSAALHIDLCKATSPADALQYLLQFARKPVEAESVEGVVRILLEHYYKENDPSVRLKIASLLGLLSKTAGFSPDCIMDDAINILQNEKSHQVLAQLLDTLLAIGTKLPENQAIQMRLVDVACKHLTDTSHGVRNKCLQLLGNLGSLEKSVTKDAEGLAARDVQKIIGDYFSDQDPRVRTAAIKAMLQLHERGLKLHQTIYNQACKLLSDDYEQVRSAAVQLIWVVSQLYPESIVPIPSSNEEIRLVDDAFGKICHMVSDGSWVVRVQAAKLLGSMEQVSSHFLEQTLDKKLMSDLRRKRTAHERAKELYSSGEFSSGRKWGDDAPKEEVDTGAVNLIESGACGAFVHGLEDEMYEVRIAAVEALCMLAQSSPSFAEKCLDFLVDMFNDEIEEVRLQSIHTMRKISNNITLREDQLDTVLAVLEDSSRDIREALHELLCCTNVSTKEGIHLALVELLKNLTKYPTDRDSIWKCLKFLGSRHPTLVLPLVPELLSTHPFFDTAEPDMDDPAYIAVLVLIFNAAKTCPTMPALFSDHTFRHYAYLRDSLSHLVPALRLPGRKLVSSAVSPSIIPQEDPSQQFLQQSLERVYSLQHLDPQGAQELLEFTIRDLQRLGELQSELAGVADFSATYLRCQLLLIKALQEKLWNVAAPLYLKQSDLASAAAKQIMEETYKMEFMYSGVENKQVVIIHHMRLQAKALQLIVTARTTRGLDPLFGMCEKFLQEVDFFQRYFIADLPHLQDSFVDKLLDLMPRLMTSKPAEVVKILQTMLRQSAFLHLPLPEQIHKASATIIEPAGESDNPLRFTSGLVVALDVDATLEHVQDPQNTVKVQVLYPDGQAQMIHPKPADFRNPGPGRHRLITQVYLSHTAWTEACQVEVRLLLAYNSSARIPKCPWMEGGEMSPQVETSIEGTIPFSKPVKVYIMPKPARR
T3 sequence (Q9NV88 whole entry, chain 2 of 3): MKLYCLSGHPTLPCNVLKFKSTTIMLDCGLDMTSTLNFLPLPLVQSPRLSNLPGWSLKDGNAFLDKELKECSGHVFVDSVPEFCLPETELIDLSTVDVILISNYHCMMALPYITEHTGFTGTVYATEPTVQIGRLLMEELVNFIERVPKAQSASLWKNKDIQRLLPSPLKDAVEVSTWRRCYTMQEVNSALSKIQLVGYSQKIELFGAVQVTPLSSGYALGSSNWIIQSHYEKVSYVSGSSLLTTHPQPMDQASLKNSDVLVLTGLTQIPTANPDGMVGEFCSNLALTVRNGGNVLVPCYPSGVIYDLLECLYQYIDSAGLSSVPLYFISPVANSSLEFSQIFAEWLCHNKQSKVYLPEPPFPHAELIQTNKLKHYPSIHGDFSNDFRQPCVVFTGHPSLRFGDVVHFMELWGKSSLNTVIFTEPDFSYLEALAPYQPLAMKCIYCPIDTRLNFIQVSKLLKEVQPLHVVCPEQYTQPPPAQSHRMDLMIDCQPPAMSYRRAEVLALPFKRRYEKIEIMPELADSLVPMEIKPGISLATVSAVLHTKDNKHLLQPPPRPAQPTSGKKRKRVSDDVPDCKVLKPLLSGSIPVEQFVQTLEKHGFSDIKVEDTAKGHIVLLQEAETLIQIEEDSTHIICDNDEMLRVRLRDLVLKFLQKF
T3 sequence (Q5TA45 whole entry, chain 3 of 3): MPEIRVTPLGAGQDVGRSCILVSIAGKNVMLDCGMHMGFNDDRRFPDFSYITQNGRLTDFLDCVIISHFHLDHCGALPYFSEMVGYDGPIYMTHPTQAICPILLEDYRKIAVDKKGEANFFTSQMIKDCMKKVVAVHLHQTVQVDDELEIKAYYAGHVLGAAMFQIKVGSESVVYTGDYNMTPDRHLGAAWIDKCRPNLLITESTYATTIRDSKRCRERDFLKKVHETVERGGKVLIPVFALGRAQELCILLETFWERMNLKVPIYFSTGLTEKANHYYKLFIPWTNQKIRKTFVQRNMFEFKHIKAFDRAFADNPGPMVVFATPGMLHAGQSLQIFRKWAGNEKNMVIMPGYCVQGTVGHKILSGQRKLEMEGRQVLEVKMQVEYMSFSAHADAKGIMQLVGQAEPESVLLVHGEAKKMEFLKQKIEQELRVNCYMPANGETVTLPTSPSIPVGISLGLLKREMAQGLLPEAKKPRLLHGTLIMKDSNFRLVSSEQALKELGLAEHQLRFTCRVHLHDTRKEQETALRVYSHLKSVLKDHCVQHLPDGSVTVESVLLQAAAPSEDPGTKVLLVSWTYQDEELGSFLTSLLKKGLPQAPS

Consider GGGUGGGGGACUGCGUUCGCGCUUUCCCCUGGCCGG (structured_RNA) [U1 SL4], for which the “apparent K (half saturation)” value in data set [1] was approximately 1000 nM. Also, the binding result in data set [2] is “binds”.

B1: GST-INTS13 cleavage module-binding motif (CMBM, residues 649–694) (domain or fragment, human, UniProt Q9NVM9 649-694, looked up)
chain: GPVSLLSLWSNRINTANSRKHQEFAGRLNSVNNRAELYQHLKEENG
notes: INTS13, human, conserved C-terminal helices, residues 649–694; also called GST-CMBM; INTS13 CMBM; source: E. coli BL21 Star (DE3), in lysate; not shown: GST, N-terminal, kept
With B1, the binding result in data set [3] was “binds”.

Take UUUUUUUUUUUU (ssRNA) [U12 RNA]: the Kd in data set [4] was 0.42 ± 0.02 µM; in data set [5] it was 0.57 ± 0.05 µM.

A word on the Kd: it is a measure of binding affinity in units of concentration.

The values are drawn from PMC7347597, “INTS10–INTS13–INTS14 form a functional module of Integrator that binds nucleic acids and the cleavage module” (Nature Communications, 2020).
